Reference: US20240118272A1

Legend:
[1] = target: CD9(FL)-ALP conjugate (human; bovine); assay: HI-1000 capture immunoassay; calibrator C4, 15 ng/mL; run 3
[2] = target: CD9(FL)-ALP conjugate (human; bovine); assay: HI-1000 capture immunoassay; calibrator C5, 30 ng/mL; run 1
[3] = target: CD9(FL)-ALP conjugate (human; bovine); assay: HI-1000 capture immunoassay; calibrator C1, 1.0 ng/mL; run 1
[4] = target: CD9(FL)-ALP conjugate (human; bovine); assay: HI-1000 capture immunoassay; calibrator C1, 1.0 ng/mL; run 2
[5] = target: CD9(FL)-ALP conjugate (human; bovine); assay: HI-1000 capture immunoassay; calibrator C2, 3.7 ng/mL; run 2
[6] = target: CD9(FL)-ALP conjugate (human; bovine); assay: HI-1000 capture immunoassay; calibrator C3, 7.4 ng/mL; run 2
[7] = target: CD9(FL)-ALP conjugate (human; bovine); assay: HI-1000 capture immunoassay; calibrator C2, 5.48 mU/L; run 3
[8] = target: CD9(FL)-ALP conjugate (human; bovine); assay: HI-1000 capture immunoassay; calibrator C3, 10.96 mU/L; run 1
[9] = target: CD9(FL)-ALP conjugate (human; bovine); assay: HI-1000 capture immunoassay; calibrator C3, 10.96 mU/L; run 2
[10] = target: CD9(FL)-ALP conjugate (human; bovine); assay: HI-1000 capture immunoassay; calibrator C4, 21.93 mU/L; run 2
[11] = target: CD9(FL)-ALP conjugate (human; bovine); assay: HI-1000 capture immunoassay; calibrator C5, 30 ng/mL; mean of 3
[12] = target: CD9(FL)-ALP conjugate (human; bovine); assay: HI-1000 capture immunoassay; calibrator C1, 1.0 ng/mL; mean of 3
[13] = target: CD9(FL)-ALP conjugate (human; bovine); assay: HI-1000 capture immunoassay; calibrator C3, 10.96 mU/L; mean of 3
[14] = target: CD9(FL)-ALP conjugate (human; bovine); assay: HI-1000 capture immunoassay; calibrator C4, 21.93 mU/L; mean of 3
[15] = target: CD9(ECD)-ALP conjugate (human; bovine); assay: HI-1000 capture immunoassay; primary calibrator C1, 1.52 ng/mL; run 1
[16] = target: CD9(ECD)-ALP conjugate (human; bovine); assay: HI-1000 capture immunoassay; primary calibrator C2, 4.89 ng/mL; run 1
[17] = target: CD9(ECD)-ALP conjugate (human; bovine); assay: HI-1000 capture immunoassay; primary calibrator C2, 4.89 ng/mL; run 3
[18] = target: CD9(ECD)-ALP conjugate (human; bovine); assay: HI-1000 capture immunoassay; secondary calibrator C1, 1.02 U/L; run 1
[19] = target: CD9(ECD)-ALP conjugate (human; bovine); assay: HI-1000 capture immunoassay; secondary calibrator C1, 1.02 U/L; run 3
[20] = target: CD9(ECD)-ALP conjugate (human; bovine); assay: HI-1000 capture immunoassay; secondary calibrator C2, 3.84 U/L; run 1
[21] = target: CD9(ECD)-ALP conjugate (human; bovine); assay: HI-1000 capture immunoassay; secondary calibrator C2, 3.84 U/L; run 2
[22] = target: CD9(ECD)-ALP conjugate (human; bovine); assay: HI-1000 capture immunoassay; secondary calibrator C2, 3.84 U/L; run 3
[23] = target: CD9(ECD)-ALP conjugate (human; bovine); assay: HI-1000 capture immunoassay; primary calibrator C3, 15.65 ng/mL; run 3
[24] = target: CD9(ECD)-ALP conjugate (human; bovine); assay: HI-1000 capture immunoassay; secondary calibrator C3, 14.32 U/L; run 3
[25] = target: CD9(ECD)-ALP conjugate (human; bovine); assay: HI-1000 capture immunoassay; primary calibrator C5, 159.87 ng/mL; run 1
[26] = target: CD9(ECD)-ALP conjugate (human; bovine); assay: HI-1000 capture immunoassay; secondary calibrator C5, 387.01 U/L; run 3
[27] = target: CD9(ECD)-ALP conjugate (human; bovine); assay: HI-1000 capture immunoassay; secondary calibrator C2; mean of 3 aliquots
[28] = target: CD9(ECD)-ALP conjugate (human; bovine); assay: HI-1000 capture immunoassay; secondary calibrator C3; mean of 3 aliquots
[29] = target: CD9(ECD)-ALP conjugate (human; bovine); assay: HI-1000 capture immunoassay; secondary calibrator C4; mean of 3 aliquots
[30] = target: CD9(ECD)-ALP conjugate (human; bovine); assay: HI-1000 capture immunoassay; thawed aliquot 1 of secondary calibrator C3
[31] = target: CD9(ECD)-ALP conjugate (human; bovine); assay: HI-1000 capture immunoassay; thawed aliquot 1 of secondary calibrator C4
[32] = target: CD9(ECD)-ALP conjugate (human; bovine); assay: HI-1000 capture immunoassay; thawed aliquot 1 of secondary calibrator C5
[33] = target: CD9(ECD)-ALP conjugate (human; bovine); assay: HI-1000 capture immunoassay; thawed aliquot 2 of secondary calibrator C1
[34] = target: CD9(ECD)-ALP conjugate (human; bovine); assay: HI-1000 capture immunoassay; thawed aliquot 2 of secondary calibrator C2
[35] = target: CD9(ECD)-ALP conjugate (human; bovine); assay: HI-1000 capture immunoassay; thawed aliquot 2 of secondary calibrator C3
[36] = target: CD9(ECD)-ALP conjugate (human; bovine); assay: HI-1000 capture immunoassay; thawed aliquot 2 of secondary calibrator C4
[37] = target: CD9(ECD)-ALP conjugate (human; bovine); assay: HI-1000 capture immunoassay; thawed aliquot 2 of secondary calibrator C5
[38] = target: CD9(ECD)-ALP conjugate (human; bovine); assay: HI-1000 capture immunoassay; thawed aliquot 3 of secondary calibrator C1
[39] = target: CD9(ECD)-ALP conjugate (human; bovine); assay: HI-1000 capture immunoassay; thawed aliquot 3 of secondary calibrator C4
[40] = target: CD9(ECD)-ALP conjugate (human; bovine); assay: HI-1000 capture immunoassay; primary calibrator C2, 4.89 ng/mL; mean of 3
[41] = target: CD9(ECD)-ALP conjugate (human; bovine); assay: HI-1000 capture immunoassay; secondary calibrator C2, 3.84 U/L; mean of 3

Sequence of CD9(FL)-ALP conjugate (human; bovine) (chain, as listed by the source, chain 1 of 2): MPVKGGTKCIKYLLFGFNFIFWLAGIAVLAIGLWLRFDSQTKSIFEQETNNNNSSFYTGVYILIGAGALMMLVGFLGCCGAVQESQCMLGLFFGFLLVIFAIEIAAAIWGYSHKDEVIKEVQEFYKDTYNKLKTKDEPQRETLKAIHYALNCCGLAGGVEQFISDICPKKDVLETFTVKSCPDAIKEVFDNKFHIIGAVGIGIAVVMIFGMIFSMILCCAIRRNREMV
Sequence of CD9(FL)-ALP conjugate (human; bovine) (P19111 20-506, chain 2 of 2): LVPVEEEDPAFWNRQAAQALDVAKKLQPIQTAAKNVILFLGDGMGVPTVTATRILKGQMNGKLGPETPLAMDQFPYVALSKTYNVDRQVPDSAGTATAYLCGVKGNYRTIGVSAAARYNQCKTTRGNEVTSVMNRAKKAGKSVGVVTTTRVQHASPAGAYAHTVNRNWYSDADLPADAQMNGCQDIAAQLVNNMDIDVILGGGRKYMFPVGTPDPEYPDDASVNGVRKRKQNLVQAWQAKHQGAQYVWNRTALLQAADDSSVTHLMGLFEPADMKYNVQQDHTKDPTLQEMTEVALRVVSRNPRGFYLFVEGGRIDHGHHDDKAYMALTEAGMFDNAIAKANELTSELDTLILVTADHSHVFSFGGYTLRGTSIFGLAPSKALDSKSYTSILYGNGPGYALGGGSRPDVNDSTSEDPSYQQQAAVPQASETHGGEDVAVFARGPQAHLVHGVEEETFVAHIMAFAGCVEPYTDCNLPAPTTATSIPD
Sequence of CD9(ECD)-ALP conjugate (human; bovine) (chain, as listed by the source, chain 1 of 2): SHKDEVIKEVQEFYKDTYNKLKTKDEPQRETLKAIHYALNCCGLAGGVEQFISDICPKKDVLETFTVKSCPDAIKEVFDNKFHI
Sequence of CD9(ECD)-ALP conjugate (human; bovine) (P19111 20-506, chain 2 of 2): as the sequence (P19111 20-506, chain 2 of 2) above

anti-CD9 antibody (Clone: H19a)
Count value [1]: 13900 count
Count value [2]: 24600 count
Count value [3]: 1420 count
Count value [4]: 1550 count
Count value [5]: 8680 count
Count value [6]: 7020 count
Count value [7]: 3780 count
Count value [8]: 6330 count
Count value [9]: 7090 count
Count value [10]: 13200 count
Count value (av) [11]: 25900 count
Count value (av) [12]: 1480 count
Count value (av) [13]: 6750 count
Count value (av) [14]: 13300 count
Count value [15]: 1080 count
Count value [16]: 2610 count
Count value [17]: 2540 count
Count value [18]: 975 count
Count value [19]: 912 count
Count value [20]: 2420 count
Count value [21]: 2300 count
Count value [22]: 2450 count
Count value [23]: 6980 count
Count value [24]: 8060 count
Count value [25]: 70400 count
Count value [26]: 209000 count
Count value (av) [27]: 1560 count
Count value (av) [28]: 3900 count
Count value (av) [29]: 11600 count
Count value [30]: 3830 count
Count value [31]: 11400 count
Count value [32]: 36500 count
Count value [33]: 810 count
Count value [34]: 1580 count
Count value [35]: 4080 count
Count value [36]: 12000 count
Count value [37]: 36800 count
Count value [38]: 805 count
Count value [39]: 11400 count
Count value (av) [40]: 2560 count
Count value (av) [41]: 2390 count
